Assay results as given in PMC12355267, “Human Helicase DDX5 is Hijacked by SARS-CoV‑2 Nsp13 Helicase to Enhance RNA Unwinding” (ACS Omega, 2025).

Biological target: T1, SARS-CoV-2 Nsp13 helicase (SARS-CoV-2, UniProt P0DTD1 5325-5925)
T1 construct: also called Nsp13 helicase of SARS-CoV-2
Experiment: BLI
Conditions: both partners purified

B1: DDX5ΔC (1–484) (domain or fragment, human, UniProt P17844 1-484, looked up)
chain: MSGYSSDRDRGRDRGFGAPRFGGSRAGPLSGKKFGNPGEKLVKKKWNLDELPKFEKNFYQEHPDLARRTAQEVETYRRSKEITVRGHNCPKPVLNFYEANFPANVMDVIARQNFTEPTAIQAQGWPVALSGLDMVGVAQTGSGKTLSYLLPAIVHINHQPFLERGDGPICLVLAPTRELAQQVQQVAAEYCRACRLKSTCIYGGAPKGPQIRDLERGVEICIATPGRLIDFLECGKTNLRRTTYLVLDEADRMLDMGFEPQIRKIVDQIRPDRQTLMWSATWPKEVRQLAEDFLKDYIHINIGALELSANHNILQIVDVCHDVEKDEKLIRLMEEIMSEKENKTIVFVETKRRCDELTRKMRRDGWPAMGIHGDKSQQERDWVLNEFKHGKAPILIATDVASRGLDVEDVKFVINYDYPNSSEDYIHRIGRTARSTKTGTAYTFFTPNNIKQVSDLISVLREANQAINPKLLQLVEDRGSGRSR
notes: human DDX5 without the flexible C-terminal end, residues 1-484; also called C-terminal truncated form of DDX5; source: E. coli (gene optimized for E. coli expression, pETM-13), purified
  binding result: binds
